Source: publication PMC5291488, “3,4-Dihydroxyphenylacetate 2,3-dioxygenase from Pseudomonas aeruginosa: An Fe(II)-containing enzyme with fast turnover” (PLoS ONE, 2017)

Substrate: O=C(O)Cc1ccc(O)c(O)c1
Assay: purified protein
Assay type: biochemical, Pseudomonas aeruginosa
Settings: air-saturated (O2 ~260 μM), 50 mM sodium phosphate pH 7.5, 25 °C, Fe(II)/DTT-activated enzyme, stock kept with 0.5 mM ascorbic acid as preservative

B1: PaDHPAO (3,4-dihydroxyphenylacetate 2,3-dioxygenase) (Pseudomonas aeruginosa PAO1) (protein)
chain: MGKVALAAKITHVPSLYLSELPGPRHGCRQPAIDGHREIGRRCRELGVDTIVVFDTHWLVNAGYHINCAPHFEGLYTSNELPHFIANMEYGFPGNPELGRILAEGCNALGVETLAHDATTLGPEYGTLVPMRYMNQDRHFKVVSVSALCTVHYLNDSARLGWAMRKAVEEHYDGTVAFLASGSLSHRFAQNGQAPDFSDRIWSPFLEVLDHEVVQMWQEGRWAEFCGMLPEYASKGHGEGFMHDTAMLLGALGWSAYDGKAEVVTPYFGSSGTGQINAVFPVTAQDGSAIPAAQAGNPAGASCASRL
notes: N-terminus MGKVA from primer
For B1, the Km was 58 ± 8 µM, the kcat was 63.5 s⁻¹ and the kcat/Km was 1.1e+06 M⁻¹ s⁻¹.
